The experiment has as its target T1, cyclic citrullinated peptide (CCP) derived from filaggrin (X stands for citrulline (9th residue of HQCHQESTXGRSRGRCGRSGS); a chemical bond between the two underlined Cs (cyclic)).
T1 construct: Synthesized peptide, coated on ELISA plates at 250 ng/well; also called Filaggrin-derived CCP; CCP peptide
T1 peptide: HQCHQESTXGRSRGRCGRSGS
Description: ELISA, coated CCP peptide, hybridoma supernatant diluted 1:1000. The method, then: For hybridoma selection, each of the CCP peptide and the CRP peptide, both previously prepared, was diluted to a final concentration of 250 ng/well in PBS or a carbonate buffer. The dilution was allocated in an amount of 50 μl into 96-well plates and incubated for 2 hrs at room temperature or overnight at 4° C. Each well was washed with 200 μl of PBS. To this end, the plates were overturned to decant the solution out of all the wells, and then struck down against paper towel to completely remove the remaining solution. […] After 30 min of the incubation, the color development was terminated with a stop solution, and color intensity to was immediately measured at 450 nm in a single point photo mode. […]
Repeated screening of the hybridoma cells against CCP and CRP left two clones 11G1 and 12G1 in the final stage (FIGS. 7 and 8). FIGS. 6 to 8 list binding intensities of anti-CCP antibodies when they recognized and bound to the target peptide CCP in each screening stage of the hybridomas, as measured by absorbance at 450 nm. […] With reference made to these marked values, how effectively each hybridoma clone produced an anti-CCP antibody was analyzed, and selection was made of effective clones which were then cultured many times so that the effective clones producing anti-CCP antibodies only predominated over other clones.
For orientation: An ELISA detects its analyte on a solid surface through an enzyme-linked reagent.

B1: monoclonal antibody 12G1 produced from the 12G1 hybridoma cell line (accession No. KCLRF-BP-00276) (antibody, V domains shown)
VH: EVKLEESGAELVRPGTSVKISCKASGYGFTNYWLGWIKQRPGHGLEWIGDVYPGSGNTYYNEKFKGKATLTADKSSSTVYMQLSSLTSEDSTVYFCAREGGITTAPYPFGYWGQGTLVTVSA
VL: DIVMTQTPSSMYASLGERVTITCKASQDINSYLSWFQQKPGKSPKTLIYRANRLVDGVPSRFSGSGSGQDYSLTISSLEYEDMGIYYCLQYDEFPWTFGGGTKLEIK
notes: Mouse monoclonal antibody from a hybridoma, detected with anti-mouse IgG; Used as hybridoma supernatant or as purified antibody; also called 12G1 antibody
Turning to B1, the binding result is reported as “binds”.
